Measured values from the PETadex activity labels.

B1: unnamed (protein)
chain: MRKISFKASLFSTLTLLASSITYAGGGGGNGGNNNGGLPAPDTCEVNCGYNQGSNPSLNSLQSTRGNFSVATSNVPRSVPGFGGGTIYYPRNTSGELATIAIAPGFTAPQDAISWWGPVLASNGFVVITIDTNSRLDQPISRGRQLDSALSYLISQGNSSNSPISGMVDENRLASMGHSMGGGGALRSASRNRLSAAIPLAPFNVGGNSFNDIEVPTMIMACENDGTAPVNIHASPFYNRIPSSTDKALIELDNGNHSCANGGSGRNNAVLATYGVSWMKRFLDKDQRFIPFLCGPNHEANRGISDYRD
B2: unnamed (protein)
chain: MRKILLSVFTILSLNSYSQCDDVISSSITNPGIYEVATLSESDGVRNGADYYGSTIYYPINTNNFLGSIVIVPGFVSYEFSIQEWGPFLASHGIVCMTIGTNSIFEQPNQRATALLDAMVSLKEENSRNASPLNSKLDIDNIALGGWSMGGGGAQIAAKMDSSIKVVIALCPWLETGLISEEYLNHQAPILFISAEYDGIANASLHATPQYELSSETTPKLIYEVANGGHTVANYPTSGNGEVGLIALSWLKKYLLNEDCYCPILLESPETASMYMTNINCENSNLNAQEIECTEGWSIISTYVNPINTNFSNFIAPVVNNLIIAKDYIGNAYLPEWDYNGIGNIEQGQGYLIKMLNTMSLAVVGEQIIASENSISLNEGWNLFANFNTESTNSDLSFAALVETENVIIIKDYIGNAMLPEWEFNGLGDLQPGRGYQIKVTANCELQY
B3: unnamed (protein)
chain: MNSRRASRLARAALAAGALLLSAAALATSNPYQRGPDPTAASLEASRGPFAVSSFTVSRPSGFGAGTVYYPTNAGGTVGAIAVVPGFTARQSSINWWGPRLASHGFVVITIDTNSTSDQPASRATQLMAALRQVVTLSGTSSSPIYNKVDTSRLGVMGWSMGGGGTLIAARNNPTLKAAVPLAPWNSSTNFSSVTVPTLIIACENDTVAPVSSHASPFYNSMTRTEKAYLEINGGSHSCANSGNSNQALLGKYGVAWMKRFMDNDTRYSSFLCGAPHSADLSSKSAISEYRENCPY
B4: unnamed (protein)
chain: MRSAKTSVLAAVALGAAALLALGACGGSNNPYIRGDDPTEESLSRPGPYAVKSLTEGDRNGPGYGGGTIYYPTDAEPPFAAVAIVPGFTSPQSSIASWGPFLASHGIVAMTIDTNSTFDQPDTRAAALLDALESIKGENTRAGSPLKGKLDTNRLGVMGWSMGGGGTLIAAKDNPELKAAISLCPWNPGSSYSNTKVPTLMIASQADPLAGVSGHSQPFYDSIPDSTPKMLFEVAGGDHFVANNPANGNGQVGRYGLSWLKRFLEGDERYRPFLLEKPPGASDYRTNVY
B5: unnamed (protein)
chain: MRACCAFNSTIPGDTMSLQLTKHFGLAALACAALMSLGAAAHAQSYQKGPNPTASALERAGPFATRTTDVSRYSVTNFGGGTIYYPTAAGQYGAIAVSPGYTASKSTVTFWGERLSSHGFVVIVIDTLTTLDQPASRARQLKAALDKVVSLSRSSSSPIYNKVDPNRLAVMGHSMGGGGTLQAAKDNPGLKAAIPMAPWNTVTNWSAVTVPTLVMACQADAIAPVANHAVPFYNSMSANKKSYIEMAGDDHLCVMNGGGHDATLGKMGIAWMKRFVDNDTRYSPFLCGLPYQATVNTSEVSVHRNNCPY
B6: unnamed (protein)
chain: MAKDRAGDVAAAKLNKSHLRGSPMEITQRGARILGTKCAASLGLLLLAATAAHAQSNPYAKGPDPTSSSLNASAGPFSVATSSVSSLAAVGFGSGTVYYPTTAGSYAAIAISPGFTATESSIAWLGRRVATHGFVVITINTNSTLDQPPSRATQLMAALRYLTNSSSSTVRSRIDTTRLGLAGHSMGGGGTLIAARDNPSLKAAVPLTAWSVTKSFSTMRVPTLVVGAENDSIASVSSHSIPFYNSLPSSLSKAYAELNGASHFAPNTTNTPIGRYTVAWVKRFMDNDTRYSPFLCGSPHDSYATGLVFSDYRDNCPY
B7: unnamed (protein)
chain: MFGKFPFARAGLAVGALLLSAAAVAQTNPYQRGPDPTVASLEATRGSFATSSFTVSRPSGYGAGTVYYPTNAGGKVGAIAVVPGFTARQSSINWWGARLASHGFVVITIDTNSTLDQPSSRSSQQMAALRQVVTLAGTTSSPIYNKVDTARLGVMGWSMGGGGSLISAKNNPTLRAAAPQAPWAQESFSTVTVPTLIISCESDTIAPNNTHSFPFYNQMTRNKKANLVINGGSHSCANSGNADAGLIGKYGVAWMKRFMDDDTRFSKFLCGAEHTADLSKRAIEAYKENCPY
B8: unnamed (protein)
chain: MQHSPSTSRTRQRVTGILASLAVAVGVGIAAGPAAQGADNPHERGPDPTESSIEASRGSYSISERNVSSLVSGFGGGTIYYPTTTRDGDFGAVVISPGYTGTERTISWLGPRLASQGFVVLTMATNSIYDQPDSRARQLQAALDYLTDSSPVADRIDADRLALMGHSMGGGGTLRAVDDNPDIKAAIPMTPWHVKKNWSSVSTPTLIFGAENDSVARHETHAEPFYESFDRDLQKAYLELDGASHFAPNSSNTTIAKYSISWLKRFVDDDTRYTQFLCPGPSTGWFSDVEKYESSCPF

substrate: BHET; conditions: 120 h

Protein	plate clearing
B1	not clears the plate
B2	not clears the plate
B3	clears the plate (z > 3 vs empty vector)
B4	not clears the plate
B5	clears the plate (z > 3 vs empty vector)
B6	not clears the plate
B7	not clears the plate
B8	not clears the plate
